Reference: article PMC2148169 (The Journal of Cell Biology, 1998)

Target: the molecule itself
Test: SEC

B1: recombinant GST-Vps5p expressed in bacteria (natural protein)
chain: LEAPVWDELNHEGDKTQSLVSNSIESIGQISTNEERKDNELLETTASFADKIDLDSAPEWKDPGLSVAGNPQLEEHDNSKADDLINSLAPEQDPIADLKNSTTQFIATRESGGALFTGNANSPLVFDDTIYDANTSPNTSKSISGRRSGKPRILFDSARAQRNSKRNHSLKAKRTTASDDTIKTPFTDPLKKAEKENEFVEEPLDDRNERRENNEGKFTASVEKNILEQVDRPLYNLPQTGANISSPAEVEENSEKFGKTKIGSKVPPTEKAVAFKVEVKDPVKVGELTSIHVEYTVISESSLLELKYAQVSRRYRDFRWLYRQLQNNHWGKVIPPPPEKQSVGSFKENFIENRRFQMESMLKKICQDPVLQKDKDFLLFLTSDDFSSESKKRAFLTGSGAINDSNDLSEVRISEIQLLGAEDAAEVLKNGGIDAESHKGFMSISFSSLPKYNEADEFFIEKKQKIDELEDNLKKLSKSLEMVDTSRNTLAASTEEFSSMVETLASLNVSEPNSELLNNFADVHKSIKSSLERSSLQETLTMGVMLDDYIRSLASVKAIFNQRSKLGYFLVVIENDMNKKHSQLGKLGQNIHSEKFREMRKEFQTLERRYNLTKKQWQAVGDKIKDEFQGFSTDKIREFRNGMEISLEAAIESQKECIELWETFYQTNL
binding result: binds
